Paper PMC11804868 (ACS catalysis, 2024)

Target: the molecule itself
Assay: SEC

B1: PikAIV TE wild type (thioesterase domain of the pikromycin polyketide synthase PikAIV) (domain or fragment, Streptomyces venezuelae ATCC 15439, UniProt Q9ZGI2 1057-1346, looked up)
chain: AGMFRALFRQAVEDDRYGEFLDVLAEASAFRPQFASPEACSERLDPVLLAGGPTDRAEGRAVLVGCTGTAANGGPHEFLRLSTSFQEERDFLAVPLPGYGTGTGTGTALLPADLDTALDAQARAILRAAGDAPVVLLGHSGGALLAHELAFRLERAHGAPPAGIVLVDPYPPGHQEPIEVWSRQLGEGLFAGELEPMSDARLLAMGRYARFLAGPRPGRSSAPVLLVRASEPLGDWQEERGDWRAHWDLPHTVADVPGDHFTMMRDHAPAVAEAVLSWLDAIEGIEGAGK
stoichiometry N: 2
